Data reported in US10603364B2, “Lysosomal targeting and uses thereof” (Shire Human Genetic Therapies, Inc., priority 2014, dated 2020).

B1: Naglu-tPRGN: Fusion protein of human Naglu and Progranulin C-terminal peptide (tPRGN) via GAG3 linker; SEQ ID NO:18, SEQ ID NO:23 (protein)
chain: MEAVAVAAAVGVLLLAGAGGAAGDEAREAAAVRALVARLLGPGPAADFSVSVERALAAKPGLDTYSLGGGGAARVRVRGSTGVAAAAGLHRYLRDFCGCHVAWSGSQLRLPRPLPAVPGELTEATPNRYRYYQNVCTQSYSFVWWDWARWEREIDWMALNGINLALAWSGQEAIWQRVYLALGLTQAEINEFFTGPAFLAWGRMGNLHTWDGPLPPSWHIKQLYLQHRVLDQMRSFGMTPVLPAFAGHVPEAVTRVFPQVNVTKMGSWGHFNCSYSCSFLLAPEDPIFPIIGSLFLRELIKEFGTDHIYGADTFNEMQPPSSEPSYLAAATTAVYEAMTAVDTEAVWLLQGWLFQHQPQFWGPAQIRAVLGAVPRGRLLVLDLFAESQPVYTRTASFQGQPFIWCMLHNFGGNHGLFGALEAVNGGPEAARLFPNSTMVGTGMAPEGISQNEVVYSLMAELGWRKDPVPDLAAWVTSFAARRYGVSHPDAGAAWRLLLRSVYNCSGEACRGHNRSPLVRRPSLQMNTSIWYNRSDVFEAWRLLLTSAPSLATSPAFRYDLLDLTRQAVQELVSLYYEEARSAYLSKELASLLRAGGVLAYELLPALDEVLASDSRFLLGSWLEQARAAAVSEAEADFYEQNSRYQLTLWGPEGNILDYANKQLAGLVANYYTPRWRLFLEALVDSVAQGIPFQQHQFDKNVFQLEQAFVLSKQRYPSQPRGDTVDLAKKIFLKYYPRWVAGSWGAPGGGGGAAAAAGGGGGGAPGGGGGAAAAAGGGGGGAPGGGGGAAAAAGGGGGGAPTKCLRREAPRWDAPLRDPALRQLL
B2: Naglu-SapDC: Fusion protein of human Naglu and Prosaposin DC peptide (SapDC) via GAG3 linker; SEQ ID NO:19, SEQ ID NO:24 (protein)
chain: MEAVAVAAAVGVLLLAGAGGAAGDEAREAAAVRALVARLLGPGPAADFSVSVERALAAKPGLDTYSLGGGGAARVRVRGSTGVAAAAGLHRYLRDFCGCHVAWSGSQLRLPRPLPAVPGELTEATPNRYRYYQNVCTQSYSFVWWDWARWEREIDWMALNGINLALAWSGQEAIWQRVYLALGLTQAEINEFFTGPAFLAWGRMGNLHTWDGPLPPSWHIKQLYLQHRVLDQMRSFGMTPVLPAFAGHVPEAVTRVFPQVNVTKMGSWGHFNCSYSCSFLLAPEDPIFPIIGSLFLRELIKEFGTDHIYGADTFNEMQPPSSEPSYLAAATTAVYEAMTAVDTEAVWLLQGWLFQHQPQFWGPAQIRAVLGAVPRGRLLVLDLFAESQPVYTRTASFQGQPFIWCMLHNFGGNHGLFGALEAVNGGPEAARLFPNSTMVGTGMAPEGISQNEVVYSLMAELGWRKDPVPDLAAWVTSFAARRYGVSHPDAGAAWRLLLRSVYNCSGEACRGHNRSPLVRRPSLQMNTSIWYNRSDVFEAWRLLLTSAPSLATSPAFRYDLLDLTRQAVQELVSLYYEEARSAYLSKELASLLRAGGVLAYELLPALDEVLASDSRFLLGSWLEQARAAAVSEAEADFYEQNSRYQLTLWGPEGNILDYANKQLAGLVANYYTPRWRLFLEALVDSVAQGIPFQQHQFDKNVFQLEQAFVLSKQRYPSQPRGDTVDLAKKIFLKYYPRWVAGSWGAPGGGGGAAAAAGGGGGGAPGGGGGAAAAAGGGGGGAPGGGGGAAAAAGGGGGGAPDGGFCEVCKKLVGYLDRNLEKNSTKQEILAALEKGCSFLPDPYQKQCDQFVAEYEPVLIEILVEVMDPSFVCLKIGACPSAHKPLLGTEKCIWGPSYWCQNTETAAQCNAVEHCKRHVWN
B3: Naglu-IGFII: Fusion protein of human Naglu and IGF-II residues 8-67 via GAG3 linker; SEQ ID NO:20, SEQ ID NO:25; positive control (protein)
chain: MEAVAVAAAVGVLLLAGAGGAAGDEAREAAAVRALVARLLGPGPAADFSVSVERALAAKPGLDTYSLGGGGAARVRVRGSTGVAAAAGLHRYLRDFCGCHVAWSGSQLRLPRPLPAVPGELTEATPNRYRYYQNVCTQSYSFVWWDWARWEREIDWMALNGINLALAWSGQEAIWQRVYLALGLTQAEINEFFTGPAFLAWGRMGNLHTWDGPLPPSWHIKQLYLQHRVLDQMRSFGMTPVLPAFAGHVPEAVTRVFPQVNVTKMGSWGHFNCSYSCSFLLAPEDPIFPIIGSLFLRELIKEFGTDHIYGADTFNEMQPPSSEPSYLAAATTAVYEAMTAVDTEAVWLLQGWLFQHQPQFWGPAQIRAVLGAVPRGRLLVLDLFAESQPVYTRTASFQGQPFIWCMLHNFGGNHGLFGALEAVNGGPEAARLFPNSTMVGTGMAPEGISQNEVVYSLMAELGWRKDPVPDLAAWVTSFAARRYGVSHPDAGAAWRLLLRSVYNCSGEACRGHNRSPLVRRPSLQMNTSIWYNRSDVFEAWRLLLTSAPSLATSPAFRYDLLDLTRQAVQELVSLYYEEARSAYLSKELASLLRAGGVLAYELLPALDEVLASDSRFLLGSWLEQARAAAVSEAEADFYEQNSRYQLTLWGPEGNILDYANKQLAGLVANYYTPRWRLFLEALVDSVAQGIPFQQHQFDKNVFQLEQAFVLSKQRYPSQPRGDTVDLAKKIFLKYYPRWVAGSWGAPGGGGGAAAAAGGGGGGAPGGGGGAAAAAGGGGGGAPGGGGGAAAAAGGGGGGAPLCGGELVDTLQFVCGDRGFYFSRPASRVSRRSRGIVEECCFRSCDLALLETYCATPAKSE
notes: Fusion protein of human Naglu and IGF-II residues 8-67 via GAG3 linker; positive control

Tests used:
wild-type rats [1] = assay: Naglu enzyme activity in liver and brain after intrathecal administration (biodistribution); type: in vivo; settings: 385 ug/animal; for Naglu enzyme activity in brain: 4 or 24 hours post dose
Procedure: (§1) To evaluate biodistribution of the SORT1-binding Naglu fusion proteins, an in vivo study was conducted using wild-type rats subjected to intrathecal administration of vehicle control (PBS), rhNaglu, Naglu-IGFII, Naglu-SPP, Naglu-SapDC or Naglu-tPRGN. Details of the experimental design are provide in Table 9 below. Previous experiments had shown that Naglu-IGFII but not rhNaglu penetrates into brain tissue and is targeted to lysosomes after intrathecal injection. Accordingly, rhNaglu and Naglu-IGFII were utilized in this study as negative and positive controls, respectively.
Rats were sacrificed either 4 or 24 hours post intrathecal administration of the respective fusion protein and total Naglu enzyme activity in the animals' liver and brain tissue was determined using a well-established enzyme activity assay (FIGS. 7A and B). Briefly, brain and liver tissue homogenates were prepared and incubated in the presence of a Naglu specific substrate, i.e., methylumbelliferyl-N-acetyl-α-D-glucosainide; accumulation of cleavage product was then measured by examining fluorescence intensity at 360/460 nm (excitation/emission) using a fluorescent plate reader.

wild-type rats [2] = assay: Immunohistochemistry of Naglu protein in brain tissue after intrathecal administration; type: in vivo; settings: for Naglu immunostaining in cerebral cortex / brain parenchyma: 4 and 24 hours post treatment
Procedure: as §1
Rats were sacrificed either 4 or 24 hours post intrathecal administration of the respective fusion protein. Brain tissue samples were collected, fixed in 10% NBF and processed for paraffin embedding. 5 μm paraffin sections from each tissue assayed were subjected to immunostaining using an anti-human Naglu antibody.

[3] = system: SORT1 overexpressing cells; assay: Cellular uptake in Sortilin overexpressing cells (intracellular Naglu enzyme activity); type: cell-based; settings: absence of Neurotensin
Procedure: A cell line was established overexpressing SORT1, using standard technologies known in the art. […] After a specified period of time, the supernatant was removed and the cells were washed repeatedly. Then, cells were lysed and each sample was assayed for Naglu enzyme activity.

Naglu KO mice [4] = assay: Total glycosaminoglycan (GAG) in liver and brain, dimethylmethylene blue; type: in vivo; settings: intrathecal, 520 mg/kg brain; brain significant in 2× and 3× weekly groups
Procedure: (§2) To evaluate the in vivo activity of Naglu-SPP and its efficacy as a therapeutic for the treatment of lysosomal storage diseases, particularly San B, Naglu-SPP was administered to Naglu KO mice via intrathecal injection. Intrathecal administration of Naglu-IGFII served as a positive control. The experimental conditions used for this assay are described in Tables 10 and 11 below.
The activity of Naglu-SPP and Naglu-IGFII in vivo was also evaluated by examining the intracellular accumulation of natural substrates of Naglu in treated mice. One such assay was designed to evaluate the total concentration of glycosaminoglycan (GAG) in liver (FIG. 11A) and brain (FIG. 11B) tissue of treated mice in accordance with de Jong et al. (Clin Chem 38(6):803-807, 1992). Briefly, liver tissue was homogenized and total GAG quantified using dimethylmethylene blue. Brain tissue was homogenized and then incubated with pronase and benzonase to break down protein and nucleic acid. Total GAG was then extracted by passing the brain homogenate through a DEAE column. The eluate was further buffer exchanged through a desalting column, and the total GAG content was quantified using dimethylmethylene blue. […] The reduction of total GAG amount in brain tissue was significant in the 2× weekly as well as the 3× weekly treatment groups.

Naglu KO mice [5] = assay: Heparan sulfate in brain by LC/MS; type: in vivo; settings: intrathecal, 520 mg/kg brain, 2× weekly and 3× weekly
Procedure: as §2
In a second assay, we evaluation the total amount of heparan sulfate in the brain of treated KO mice. […] To measure heparan sulfate in mouse brain tissue, a highly sensitive LC/MS method was applied (Lawrence et al, 2012, Nat Chem Biol. 2012 Jan. 8; 8(2):197-204). Briefly, total GAG from brain tissue was extracted by a DEAE column and a desalting column, and then dried and weighted. The extracted GAG was treated with heparin lyases that specifically release unique mono, di and tri saccharides of heparan sulfate, and the sample was then analyzed by LC/MS. The released saccharides were identified and quantified using commercially available saccharide standards of heparan sulfate degradation.

Naglu KO mice [6] = assay: Sanfillipo B specific biomarkers in brain by LC/MS; type: in vivo; settings: intrathecal, 520 mg/kg brain, especially 2× weekly and 3× weekly
Procedure: as §2
Using the same LC/MS technology as used for the quantification of heparin sulfate (see above), the presence of Sanfillipo B specific biomarkers in brains of treated KO mice were evaluated. Naglu deficiency causes the accumulation of certain heparin sulfate degradation products (presented in FIGS. 13A-C) which are natural substrates of Naglu. These biomarkers are the most relevant indications for Naglu deficiency.

Naglu KO mice [7] = assay: Immunohistochemical staining of Lamp-1, GFAP and Iba-1 in brain and liver; type: in vivo; settings: intrathecal
Procedure: as §2
The lysosomal targeting of Naglu-SPP and Naglu-IGFII was further examined by immunohistochemical analysis. Tissue samples were collected, fixed in 10% NBF and processed for paraffin embedding. For each tissue assayed, 5 μm paraffin sections was subjected to immunostaining using antibodies against lamp lysosomal associated membrane protein 1 (Lamp-1), glial fibrillary acidic protein (GFAP) and the ionized calcium-binding adapter molecule 1 (Iba-1).

Naglu KO mice [8] = assay: Naglu enzyme activity in tissues of Naglu KO mice after intrathecal administration; type: in vivo; settings: 520 mg/kg brain, 24 hrs post final dose
Procedure: as §2
24 hours after intrathecal administration of each respective fusion protein, Naglu KO mice were sacrificed and Naglu enzyme activity in various tissues was assayed. Total Naglu activity was evaluated using a well-established enzyme activity assay. Briefly, tissue homogenate was incubated in the presence of the Naglu specific substrate methylumbelliferyl-N-acetyl-α-D-glucosainide, and accumulation of cleavage product was measured by examining fluorescence intensity at 360/460 nm (excitation/emission) using a fluorescent plate reader. […] This increase in enzyme activity was observed over the duration of the 3 week treatment period.

| Molecule | Naglu enzyme activity in brain (wild-type rats [1]) | Naglu immunostaining in cerebral cortex / brain parenchyma (wild-type rats [2]) | Bmax of binding/uptake [3] [nmol/h/mg] | cellular internalization (intracellular Naglu activity) [3] | total GAG concentration in liver and brain tissue vs vehicle control (Naglu KO mice [4]) | rank of Naglu enzyme activity in brain among treatments (wild-type rats [1]) | Naglu immunostaining in cerebellum and hippocampal region (wild-type rats [2]; 24 hours post injection) | total amount of heparan sulfate accumulation in brain tissue (Naglu KO mice [5]) | accumulation of three GAG cleavage products (San B biomarkers) in brain (Naglu KO mice [6]) | Lamp-1 immunostaining in brain (cerebral cortex, cerebellum, thalamus, striatum, white matter) (Naglu KO mice [7]; 2× weekly and 3× weekly) | Lamp-1 immunoreactivity in liver (Naglu KO mice [7]; three weekly deliveries) | GFAP staining in cerebral cortex and cerebellum (astrocytes) (Naglu KO mice [7]; three weekly injections) | Iba-1 staining in cerebral cortex and cerebellum (microglial cells) (Naglu KO mice [7]; three weekly injections) | Naglu activity in liver and brain tissue vs vehicle control (Naglu KO mice [8]) |
| --- | --- | --- | --- | --- | --- | --- | --- | --- | --- | --- | --- | --- | --- | --- |
| B1 | markedly elevated levels | little to no Naglu signal | 2060 | effectively internalized | – | – | – | – | – | – | – | – | – | – |
| B2 | markedly elevated levels | little to no Naglu signal | – | only a very limited increase | – | – | – | – | – | – | – | – | – | – |
| B3 | markedly elevated levels | positive staining | – | – | significant reduction | highest activity | strong Naglu signal | strong reduction | dramatic decrease | decrease | reduced significantly | reduced signal | microglial cells had a reduced size and a reduced number of processes | dramatic increase |
